Assays:
Human TNFR1/Fc [1] = target: T1, Human TNFR1/Fc (human, UniProt P19438 30-211); assay: SPR
T1 chain: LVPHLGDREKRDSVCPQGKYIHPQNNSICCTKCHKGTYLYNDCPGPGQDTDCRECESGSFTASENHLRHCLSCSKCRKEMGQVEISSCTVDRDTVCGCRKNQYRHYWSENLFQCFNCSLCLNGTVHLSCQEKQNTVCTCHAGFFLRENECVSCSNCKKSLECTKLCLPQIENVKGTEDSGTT

Human TNFR1/Fc [2] = target: T1, Human TNFR1/Fc; assay: SPR

B1: recombinant HP986 (natural protein)
chain: METFFSLHVPNRRIKQNGIIDEKSLEKIQERKNLSSLLYEHRARIIPLYKRINENHAKNKTINICENNLKLFYKDHQVCVNIDKKEIKLRYSEDEDDFRKYIIGGWFEEYIYCELLELLDKQVICDLRLNMILGVGNTNATQGDKHPIYTELDIAFSDGKNLYVAECKSGELKNKGVLAALSADAQIFGGANAKCILISIDGNLGQVLQEKVKILNIEFIFKYFKKNIENYINNSRR
For B1, the Kd (Human TNFR1/Fc [1]) was 72.1 nM and the Ka (Human TNFR1/Fc [2]) was 1.39e+07 M⁻¹.
